Consider 6 proteins from paper doi:10.1101/2024.07.05.601840v1.

Holding throughout (test): purified protein
Substrate in data set [1]: CC(C)(COP(=O)(O)OP(=O)(O)OC[C@H]1O[C@@H](n2cnc3c(N)ncnc32)[C@H](O)[C@@H]1OP(=O)(O)O)[C@@H](O)C(=O)NCCC(=O)NCCS
The data set is classed as biochemical, Sulfolobus acidocaldarius. The conditions noted are these: thiolytic cleavage, 0.1 mM AcAcCoA, 20 mM MgCl2, pH 8, 23°C.

Substrate in data set [2]: CC(=O)CC(=O)SCCNC(=O)CCNC(=O)[C@H](O)C(C)(C)COP(=O)(O)OP(=O)(O)OC[C@H]1O[C@@H](n2cnc3c(N)ncnc32)[C@H](O)[C@@H]1OP(=O)(O)O
The data set is classed as biochemical, Sulfolobus acidocaldarius. The following applies: thiolytic cleavage, 0.2 mM CoA, 20 mM MgCl2, pH 8, 23°C.

Substrate in data set [3]: CCCCCCCC(=O)SCCNC(=O)CCNC(=O)[C@H](O)C(C)(C)COP(=O)(O)OP(=O)(O)OC[C@H]1O[C@@H](n2cnc3c(N)ncnc32)[C@H](O)[C@@H]1OP(=O)(O)O
The following applies: 1 mM FcPF6, pH 6.5 HEPES-KOH, 20 mM KCl, 65°C.

Substrate in data set [4]: C[C@@H](O)CC(=O)SCCNC(=O)CCNC(=O)[C@H](O)C(C)(C)COP(=O)(O)OP(=O)(O)OC[C@H]1O[C@@H](n2cnc3c(N)ncnc32)[C@H](O)[C@@H]1OP(=O)(O)O
The following applies: dehydration, pH 6.5 MES-KOH, 20 mM KCl, 65°C.

Substrate in data set [5]: C/C=C/C(=O)SCCNC(=O)CCNC(=O)[C@H](O)C(C)(C)COP(=O)(O)OP(=O)(O)OC[C@H]1O[C@@H](n2cnc3c(N)ncnc32)[C@H](O)[C@@H]1OP(=O)(O)O
Substrate in data set [6]: NC(=O)C1=CN([C@@H]2O[C@H](COP(=O)(O)OP(=O)(O)OC[C@H]3O[C@@H](n4cnc5c(N)ncnc54)[C@H](O)[C@@H]3O)[C@@H](O)[C@H]2O)C=CC1
The conditions noted are these: 0.2 mM INT, pH 7.5 HEPES-NaOH, 100 mM NaCl.

Where [7] appears, read: hydration, pH 6.5 MES-KOH, 20 mM KCl, 65°C.
[8] abbreviates: 0.3 mM NADPH, pH 7.5 HEPES-NaOH, 10 mM KCl, 70°C.

B1: KT (Saci_1114) (Sulfolobus acidocaldarius DSM 639) (protein)
chain: MLQEVYLVDFARTPFTRFTRKEPQKDPFYNLRPEELAGIVINRLIEKNGINPREIEEIVTGCALQVGEQWSFGGRHEVFASRLPYTIPSMAVDRQCASSITTVAIGAMEVATGMADIVLAGGVEKMSKTPMFDNPHIEPNMAFLTDPKYAEYDLTTGYVMGLTAERLAEEAKISREEMDRWSLRSHQMATKAIQEGYFKDEIIPFETEVEGKKITLTTDQSVRPDTSLEKLSQLPPAFRPNGTITAGNSAPLNSGSAYVLLMSKNALKRYGLTPMAKIRSFGFAGVPPAVMGKGPVPSSKKALEKANLNVKDISLWEINEAFAVVVLNAIKELGLDESTVNKRGGAIAIGHPLGATGARIVGTLARQLLIEGKDYGVATLCVGGGQGGAIVVERV
As for B1, the Km (usually the concentration of substrate that gives half-maximal velocity) in data set [1] is 3.38 µM; in data set [2], 33 ± 10 µM. Moreover, the kcat (as a rule, the number of substrate molecules converted per active site and unit of time at saturation) in data set [1] is 1.8 s⁻¹; in data set [2] it was 1.2 s⁻¹.

B2: ACAD (Saci_1123) (Sulfolobus acidocaldarius DSM 639) (protein)
chain: MVLPFKTMEAFNVEISEKHELFRRAVREFMERDVAPYVEKGEKEGQIPKEVLEKAKELGLYGVSVPEEYGGQGGDSLMTVIAQEEMARVWAALSTRVAVGGLFMTPILLFGSEEQRKKYVTPVAKGDKVAAFANTEPQAGSDVAGMQSTAKKVNGKYILNARKIFITNGGIADYYVVTARTSPPEPNARWKGISMFVVEREWKGVKVLNRIETMGLKASNTAELAFEDVEVPAENLVGEEGMGFKYAMSTFDASRVGVAGQALGVAQAALEKMTNYSVQRSAFGSPLLGFQMVQEKIAETLTEVNAARLVTYWAATLYNKGMTNEAIIASSMAKYFATEVAERAAIRAITVHGGYGVATSTGVERLLRDVEIMKIYEGANDIQKLVILKETARRLFGIKM
Take B2: in data set [3], the Michaelis constant (Km) worked out at 15.1 ± 4 µM and the kcat is 21.234 s⁻¹.

B3: MaoC-HCD (Saci_1085) (Sulfolobus acidocaldarius DSM 639) (protein)
chain: MSEQGPFFEDFKVGQRFRSKVGRSLTDVDNIWFTLLTNNSNQIHFNRDYTEKYFSGEPFKGRLVVNGFLTLAIVAGLLVELTSQNGFMLGIENVKFMNPVFAGDTIYGEAEVIEARESKSRPGFGIVKIRTWGYNQRGEKIVEFDRVFMVRKRNSVWSGEKSTDKPQ
As to B3, in data set [4], the Km was 399 ± 127 µM and the kcat turned out to be 0.549 s⁻¹. Moreover, in data set [5] (setting [7]), the Km was found to be 222 ± 64 µM and the kcat worked out at 1.404 s⁻¹.

B4: KT/DUF35 (Saci_1121/1120 complex) (Sulfolobus acidocaldarius DSM 639) (protein)
chain: MRNVAIVGTGHSKFGVRNDVSMQELAWEAVKQALEEANLEQKDIQYFVVGNVGMWSAEELPAVVVGEYCDLTPKGTMRVEAACATGSAAIRDAYQAIKAGEIDVALVVGVEQMSQSPNPQVIELIGRAGNYFWEFENFGLTFPGYYALYASAYMAKYGMKEEDLGSVAVKNHYYGARNPYAQFQKEITMEEYLKSKPVAQPLKLLDSSPITDGAAALILASEEVARKITDSPVWIVSQGVASGTANLSRRTDFTGIEASYVAAKEAYKRAKIDFSDAWRYFDVADVHDCFTIAEIMAYEDLGFAKRGEGHLMARNGETYIGGKIPVNVDGGLKAKGHPIGATGVSMAVSITRQLLYRAHKGTQADIRNGMGITHNVGGTGHYAYITIYSTRRPSS
Regarding B4, in data set [1], the Km is 20 ± 4.1 µM and the kcat is 3.467 s⁻¹. In data set [2], the Km turned out to be 65 ± 18.7 µM and the catalytic constant (kcat) came out at 4.024 s⁻¹.

B5: ETF (Saci_0315) (Sulfolobus acidocaldarius DSM 639) (protein)
chain: MAELKIVVSIKQVPDADDLRIDPVTNNLVREGVPAVINPPDYHAIEEAIRLKERFGGKTMVLTMGPGQAEVALREALAMGIDEAYLISDRAMAGADTWATSYTVAKAVQRLGGADIILFGRRAVDGETEQVGPQTGKWLGIPVVAYVREIRSIENGKAVVVRTTEFEEEVIEVPLPAVFTILETANKPRQPDILSLIKAKTAKVTVWNKDDIKAEPTKIGLAGSPTKVIKVSPPPKTRKPEIIDGKKDPEKAAEWFLNKIYESLKEAESSLKEYVKPKAKVKVNSEIWVYIDHIGDRINKASLEILSEARRIADLMDTSVAGVVIGGESVKGIINEVYEYGADKVYFAETKGYDRYDNEVYTKALAKLAKKYKPEGIFFPGTRAARELASTSAIEIDTGLIADCTNFDVDDKGVLLATRPDFGGKEMSTIVCPRHRPVMVTTRAGVFMPLPRMPGRTGELIKEEIEDLYSRLKVLEYKNIEKRNILTEADIVVGVGRGIKSPENIKKFEEFATALGGVLGVSKPLADMGWYPKDRQIGQTGTTIRPKVYIALGVSGAVQHLVGILSSRKIGAINLDQSAPIFDNCDFGVVGDIFEIVPKMMELIKKKGE
Consider B5, for which, in data set [6], the Km amounted to 39 ± 12 µM and the kcat amounted to 0.784 s⁻¹.

B6: ECR (Saci_1115) (Sulfolobus acidocaldarius DSM 639) (protein)
chain: MKAVILPGFKQGYKIDKNVQEPKAGKSEVVVKLRKAALCYRDLLQIQGFYPRSKYPLILGHEMVGEIEEVGEGVEGFKKGDIVTSLLYVPDWTCDNCKMGEEIYCNNRQLYAQELDGFFAERILVKANSLVKVPPGVSDEGAVVVPCVAAMIYRGLKRANVKQGDIVLVTGAGGGVGIHALQVAKALGAKVVGVTSEESKAKIVGKFSDYVVVGNKFAEEVRKGFGEPSIVVDNVGGPTLDESMRSLKIGGKIVQVGNIDPSVNFSLRLGYLVLKNVELIGHAGATKKDIVDTLEMVRQNKITPVIGGEVSIEDFDKALDMLKDRKRHGKILIKP
B6: in data set [5] (setting [8]), the Km was 96 ± 18 µM and the kcat was 0.256 s⁻¹.
